Assay results reported in publication PMC6293271, “Bactericidal/Permeability-Increasing Protein Is an Enhancer of Bacterial Lipoprotein Recognition” (Frontiers in Immunology, 2018).
Ends that are not written are not given here.

Tests used:
Settings in all cases: both partners purified
[1] = target: T1, recombinant bactericidal/permeability-increasing protein (rBPI) (human, UniProt P17213 32-487, labelled with NT647 (NHS labelling kit) in the MST experiments only); assay: NanoDSF (thermal shift)
T1 construct: also called rBPI NT647
T1 sequence (looked up): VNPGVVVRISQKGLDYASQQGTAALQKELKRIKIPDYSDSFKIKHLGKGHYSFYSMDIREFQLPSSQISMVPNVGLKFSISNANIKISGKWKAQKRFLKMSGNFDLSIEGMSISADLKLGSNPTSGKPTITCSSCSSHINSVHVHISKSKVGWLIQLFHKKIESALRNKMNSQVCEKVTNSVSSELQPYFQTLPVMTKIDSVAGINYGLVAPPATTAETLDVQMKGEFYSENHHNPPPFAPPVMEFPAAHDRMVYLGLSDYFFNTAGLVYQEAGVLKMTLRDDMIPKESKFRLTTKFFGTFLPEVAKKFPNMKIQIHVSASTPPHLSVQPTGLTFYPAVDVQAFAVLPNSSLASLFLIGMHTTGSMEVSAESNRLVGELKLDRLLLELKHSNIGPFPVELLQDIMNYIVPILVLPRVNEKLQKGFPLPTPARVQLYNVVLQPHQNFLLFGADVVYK

[2] = target: T1, recombinant …; assay: MST
[3] = target: T1, recombinant …; assay: ELISA; BPI microtiter binding assay, competition: 20 nM BPI pre-incubated 30 min with increasing lipopeptide, loaded on LPS biotin (2 μg/ml) on streptavidin plates, 1 h 37°C; 150 mM NaCl, 50 mM HEPES, 1 g/l BSA; bound BPI detected with anti-human BPI antibody

B1: (R)-Pam2CSK4 (peptide)
peptide: CSKKKK
modifications: not fully specified (residue 1); printed as (R)-Pam2CSK4
notes: also called di-acylated lipopeptide; source: synthetic peptide; bought: EMC Microcollections
[1]
  binding result: binds

B2: (R)-Pam3CSK4 (peptide)
peptide: CSKKKK
notes: also called tri-acylated bLP; source: synthetic peptide; bought: EMC Microcollections
[2]
  Kd: 162 ± 23.5 nM

B3: PamCSK4 (peptide)
peptide: CSKKKK
modifications: not fully specified
notes: also called mono-acylated lipopeptide; source: synthetic peptide; bought: EMC Microcollections
[3]
  binding result: binds
